Results reported in patent US20110112279A1 (published 2011).

B1: S7 IgG (full-length human IgG1; LPG3-humankappaG6 and LPG4-humanHC-S7), expressed in CHO cells (antibody, V domains shown)
VH: EVQLVESGGGLVQPGGSLRLSCAASGFTISGSDIHWVRQAPGKGLEWVGRISPYGGNTNYADSVKGRFTISADTSKNTAYLQMNSLRAEDTAVYYCARVGGLKLLFDYWGQGTLVTVSS
VL: DIQMTQSPSSLSASVGDRVTITCRASQDVSTAVAWYQQKPGKAPKLLIYSASFLYSGVPSRFSGSGSGTDFTLTISSLQPEDFATYYCQQSYTTPPTFGQGTKVEIKR
B2: S4 IgG (full-length human IgG1; LPG3-humankappaG6 and LPG4-humanHC-S4), expressed in CHO cells (antibody)
light: DIQMTQSPSSLSASVGDRVTITCRASQDVSTAVAWYQQKPGKAPKLLIYSASFLYSGVPSRFSGSGSGTDFTLTISSLQPEDFATYYCQQSYTTPPTFGQGTKVEIKRTVAAPSVFIFPPSDEQLKSGTASVVCLLNNFYPREAKVQWKVDNALQSGNSQESVTEQDSKDSTYSLSSTLTLSKADYEKHKVYACEVTHQGLSSPVTKSFNRGEC
heavy: not shown
B3: S4 Fab (antibody)
chain 1: MKKNIAFLLASMFVFSIATNAYADIQMTQSPSSLSASVGDRVTITCRASQDVSTAVAWYQQKPGKAPKLLIYSASFLYSGVPSRFSGSGSGTDFTLTISSLQPEDFATYYCQQSYTTPPTFGQGTKVEIKRTVAAPSVFIFPPSDEQLKSGTASVVCLLNNFYPREAKVQWKVDNALQSGNSQESVTEQDSKDSTYSLSSTLTLSKADYEKHKVYACEVTHQGLSSPVTKSFNRGECGASSGMADPNRFRGKDLA
chain 2: MKKNIAFLLASMFVFSIATNAYAEVQLVESGGGLVQPGGSLRLSCAASGFTISGSWIHWVRQAPGKGLEWVAWIAPYSGATDYADSVKGRFTISADTSKNTAYLQMNSLRAEDTAVYYCAREGGLYWVFDYWGQGTLVTVSSASTKGPSVFPLAPSSKSTSGGTAALGCLVKDYFPEPVTVSWNSGALTSGVHTFPAVLQSSGLYSLSSVVTVPSSSLGTQTYICNVNHKPSNTKVDKKVEPKSCDKTHL

Key:
[1] = target: T1, human STOP-1 short form (L94-K243) with C-terminal His tag, baculovirus expressed (UniProt Q96CG8 94-243); test: competitive ELISA
[2] = target: T2, human STOP-1, full length, C-terminal 8xHis tag (h762HIP; M1-K243-His), expressed in CHO-psgb cells (UniProt Q96CG8 31-243); test: competitive ELISA
[3] = target: T2, human STOP-1, full length, C-terminal …; test: competitive ELISA; F/F: coated full length, competed full length
[4] = target: T1, human STOP-1 short form (L94-K243) with …; test: competitive ELISA; S/S: coated short form, competed short form

T2 sequence (Q96CG8 other isoform, or with tags, fused parts or gaps): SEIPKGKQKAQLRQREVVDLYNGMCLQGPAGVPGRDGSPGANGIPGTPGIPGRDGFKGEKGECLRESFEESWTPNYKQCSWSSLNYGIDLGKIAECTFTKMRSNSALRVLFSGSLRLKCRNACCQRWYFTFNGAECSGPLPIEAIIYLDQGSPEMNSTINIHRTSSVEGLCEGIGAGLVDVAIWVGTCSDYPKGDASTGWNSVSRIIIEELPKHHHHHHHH
T1 sequence (Q96CG8 94-243): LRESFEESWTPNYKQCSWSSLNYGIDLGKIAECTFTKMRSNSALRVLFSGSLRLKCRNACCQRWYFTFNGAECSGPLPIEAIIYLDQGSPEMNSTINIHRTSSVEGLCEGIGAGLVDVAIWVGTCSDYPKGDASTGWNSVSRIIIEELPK

| Binder | Kd [1] [nM] | Kd [2] [nM] | Kd [3] [nM] | Kd [4] [nM] |
| --- | --- | --- | --- | --- |
| B1 | 7.3 | 41 | 41 | 7.3 |
| B2 | 0.5 | 3 | 3.1 | 0.5 |
| B3 | 1.9 | 13 | 13.4 |  |
